From US20260355338 (published 2026)

T1: EpCAM on HSC2 cells (human, UniProt P16422)
T1 chain: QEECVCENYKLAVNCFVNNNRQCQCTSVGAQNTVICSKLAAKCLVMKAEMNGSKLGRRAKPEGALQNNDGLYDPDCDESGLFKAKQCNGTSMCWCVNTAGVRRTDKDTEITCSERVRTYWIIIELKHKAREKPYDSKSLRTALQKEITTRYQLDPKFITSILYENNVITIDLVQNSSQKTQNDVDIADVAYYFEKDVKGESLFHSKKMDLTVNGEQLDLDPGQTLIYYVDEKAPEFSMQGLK

T2: human EpCAM-mFc (human)
T2 chain: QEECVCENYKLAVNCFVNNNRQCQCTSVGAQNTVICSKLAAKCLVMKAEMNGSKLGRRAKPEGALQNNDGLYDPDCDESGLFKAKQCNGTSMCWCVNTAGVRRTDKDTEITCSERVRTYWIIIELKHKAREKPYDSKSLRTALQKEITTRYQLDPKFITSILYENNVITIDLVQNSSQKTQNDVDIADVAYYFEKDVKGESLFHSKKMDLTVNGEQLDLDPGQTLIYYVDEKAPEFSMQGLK


Assays:
[1] = target: T1, EpCAM on HSC2 cells; test: FACS, HSC2 cells, apparent, high end of range
[2] = target: T1, EpCAM on HSC2 cells; test: FACS, HSC2 cells, apparent, low end of range
[3] = target: T2, human EpCAM-mFc; test: ELISA

Kd [1] [nM]	Kd [2] [nM]	Kd [3] [nM]	Binder
0.79	0.38	–	muEpCAM23 (antibody, V domains shown) VH: EVKLEESGPALVKPGASVRISCKASGYTFTNYYIHWVKQRPGQGLDYIGWIYPGNVYIQYNEKFKGKATLTADKSSSTAFMQLSSLTSEDSAVYFCARDGPWFAYWGQGTLVTVSS VL: DIVLTQTPFSNPVTLGTSASISCRSSKSLLHSDGFTYLYWFLQKPGQSPHLLIYQTSNLASGVPDRFSSSGSGTDFTLRISRVEAEDVGVYYCAQNLELPNTFGGGTKLEIK
–	–	1.9	EP04-3014 (1361-H) (antibody) chain 1: QVQLVQSGAEVKKPGASVKVSCKASGYTFTNYHIHWVRQAPGQRLEYIGWIYPGNVYIQYNEKFKGRATLTADKSASTAYMELSSLRSEDTAVYYCARDGPWFAYWGQGTLVTVSS chain 2: QGQSGQGWCPRLFDRPSMGCPTGGGSSGGAVGLLAPPGGLSGRSDNIGGSDIVLTQTPLSLSVTPGQPASISCRSSRSLLHSDGFTYLYWFLQKPGQSPQLLIYQTSNLASGVPDRFSSSGSGTDFTLKISRVEAEDVGVYYCAQNLELPNTFGQGTKLEIK
–	–	37.6	EP07-3014 (1565-Y) (antibody) chain 1: QVQLVQSGAEVKKPGASVKVSCKASGYTFTNYYIHWVRQAPGQRLEYIGWIYPGNVYIQYNEKFKGRATLTADKSASTAYMELSSLRSEDTAVYYCARDGYWFAYWGQGTLVTVSS chain 2: QGQSGQGHSGCPRLFDRCSAPAGGGSSGGAVGLLAPPGGLSGRSDNIGGSDIVLTQTPLSLSVTPGQPASISCRSSRSLLHSDGFTYLYWFLQKPGQSPQLLIYQTSNLASGVPDRFSSSGSGTDFTLKISRVEAEDVGVYYCAQNLELPNTFGQGTKLEIK
–	–	147	EP107-3014 (1361-H) (antibody) chain 1: QVQLVQSGAEVKKPGASVKVSCKASGYTFTNYHIHWVRQAPGQRLEYIGWIYPGNVYIQYNEKFKGRATLTADKSASTAYMELSSLRSEDTAVYYCARDGPWFAYWGQGTLVTVSS chain 2: QGQSGQGSKPCSYMHPYCFYNSGGGSSGGAVGLLAPPGGLSGRSDNIGGSDIVLTQTPLSLSVTPGQPASISCRSSRSLLHSDGFTYLYWFLQKPGQSPQLLIYQTSNLASGVPDRFSSSGSGTDFTLKISRVEAEDVGVYYCAQNLELPNTFGQGTKLEIK
